B1: library; the commonest letter at each place (parent)
chain: MKPVTLYDVAEYAGVSYQTVSRVVNQASHVSAKTREKVEAAMAELNYIPNRVAQQLAGKQSLLIGVATSSLALHAPSQIVAAIKSRADQLGASVVVSMVERSGVEACKAAVHNLLAQRVSGLIINYPLDDQDAIAVEAACTNVPALFLDVSDQTPINSIIFSHEDGTRLGVEHLVALGHQQIALLAGPLSSVSARLRLAGWHKYLTRNQIQPIAEREGDWSAMSGFQQTMQMLNEGIVPTAMLVANDQMALGAMRAITESGLRVGADISVVGYDDTEDSSCYIPPLTTIKQDFRLLGQTSVDRLLQLSQGQAVKGNQLLPVSLVKRKTTLAPNTQTASPRALADSLMQLARQVSRLESGQ

Holding throughout (details): with IPTG
The variants in data set [1] derive from B1. How it is done: (§1)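 LacI variants on the pVER plasmid regulate eYFP behind lacO in E. coli MG1655Δlac, grown in rich M9 at 37 °C with a 2-fold IPTG dilution series. After two 160-min growth steps, YFP is read by flow cytometry and calibrated to MEF. Bayesian MCMC fits of the Hill equation give G0, G∞, EC50 and n (posterior mean ± SD).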
Data set [2] covers variants of B1. The data set can be described thus: Hill coefficient n (dimensionless); higher = steeper dose response. On the procedure: as §1
The variants in data set [3] derive from B1. The data set can be described thus: basal output G0 (YFP, no IPTG) (log10 MEF); higher = higher reporter expression without inducer. On the procedure:
as §1

In data set [4] the parent is B1. The data set can be described thus: saturating output G-infinity (YFP) (log10 MEF); higher = higher reporter expression at saturating IPTG. On the procedure:
as §1

± gives the uncertainty stated by the source.

E11K A67P F161S A186V M230L D344N: in the data set with IPTG [1], the “EC50 for IPTG (log10 µmol/L)” value was 0.815 ± 0.031. The Hill coefficient n with IPTG [2] was 1.44 ± 0.11. The “basal output G0 (log10)” value in the data set with IPTG [3] was determined as 3.548 ± 0.033. The “saturating output G-infinity (log10)” value in the data set with IPTG [4] is 4.236 ± 0.006.
As to S279T, the “EC50 for IPTG (log10 µmol/L)” value with IPTG [1] came to 1.481 ± 0.012. For the same variant, in the data set with IPTG [2], the Hill coefficient n worked out at 1.48 ± 0.03. Besides, the “basal output G0 (log10)” value with IPTG [3] is 2.68 ± 0.034. Further, the “saturating output G-infinity (log10)” value with IPTG [4] came to 4.458 ± 0.0048.
In the same order, the values of Q231R are 2.063 ± 0.0082, 1.67 ± 0.03, 2.29 ± 0.081 and 4.3759 ± 0.0039.
For L56M A194V, in that order: 2.393 ± 0.016, 1.42 ± 0.045, 3.9036 ± 0.0036 and 4.549 ± 0.0059.
For N208Y, in that order: 2.01 ± 0.0066, 1.64 ± 0.026, 2.24 ± 0.14 and 4.4021 ± 0.003.
T68I: the “EC50 for IPTG (log10 µmol/L)” value with IPTG [1] amounted to 1.41 ± 0.045. Moreover, the Hill coefficient n with IPTG [2] amounted to 1.28 ± 0.1. Besides, the “basal output G0 (log10)” value in the data set with IPTG [3] was 3.24 ± 0.054. For the same variant, the “saturating output G-infinity (log10)” value in the data set with IPTG [4] was 4.419 ± 0.015.
As to V136E, the “EC50 for IPTG (log10 µmol/L)” value with IPTG [1] came to 1.69 ± 0.034. For the same variant, in the data set with IPTG [2], the Hill coefficient n is 1.5 ± 0.13. In addition, in the data set with IPTG [3], the “basal output G0 (log10)” value was determined as 2.46 ± 0.36. In addition, in the data set with IPTG [4], the “saturating output G-infinity (log10)” value turned out to be 4.015 ± 0.014.
In the same order, the values of V15I F161I A266T K290R M347I are 2.85 ± 0.076, 1.46 ± 0.13, 3.111 ± 0.019 and 4.369 ± 0.043.
In the same order, the values of S69F are 1.05 ± 0.042, 1.51 ± 0.14, 2.66 ± 0.67 and 4.379 ± 0.015.
Consider S69T, for which the “EC50 for IPTG (log10 µmol/L)” value with IPTG [1] is 1.7 ± 0.018. The Hill coefficient n with IPTG [2] worked out at 1.64 ± 0.06. Also, the “basal output G0 (log10)” value with IPTG [3] is 2.07 ± 0.53. Also, in the data set with IPTG [4], the “saturating output G-infinity (log10)” value came to 4.406 ± 0.0077.
As for K2R A92V R195P D278G, in the data set with IPTG [1], the “EC50 for IPTG (log10 µmol/L)” value was 2.91 ± 0.042. Moreover, the Hill coefficient n with IPTG [2] was 2.03 ± 0.12. Besides, in the data set with IPTG [3], the “basal output G0 (log10)” value amounted to 3.086 ± 0.01. Moreover, the “saturating output G-infinity (log10)” value with IPTG [4] stood at 4.436 ± 0.04.
Turning to E36V Q89H D132G A138D E277A Q306E S322T, in the data set with IPTG [1], the “EC50 for IPTG (log10 µmol/L)” value was found to be 2.315 ± 0.02. Moreover, the Hill coefficient n with IPTG [2] is 1.54 ± 0.044. Moreover, the “basal output G0 (log10)” value in the data set with IPTG [3] is 2.12 ± 0.15. Besides, the “saturating output G-infinity (log10)” value with IPTG [4] is 4.363 ± 0.01.
For S70R V96E T154I S158R V238D M254I V264I, in that order: 3.671 ± 0.018, 3 ± 0.23, 4.516 ± 0.0061 and 3.396 ± 0.026.
For S97T G200C, in that order: 2.162 ± 0.012, 1.65 ± 0.041, 2.68 ± 0.043 and 4.442 ± 0.0057.
For Q89L S158C E172K Q291H, in that order: 2.457 ± 0.021, 1.33 ± 0.04, 3.336 ± 0.007 and 4.341 ± 0.0086.
With H74Y A92V H112L S151T D165N H179Q, the “EC50 for IPTG (log10 µmol/L)” value with IPTG [1] was 1.29 ± 0.014. Moreover, the Hill coefficient n in the data set with IPTG [2] turned out to be 1.54 ± 0.049. The “basal output G0 (log10)” value in the data set with IPTG [3] was 4.426 ± 0.0049. In addition, in the data set with IPTG [4], the “saturating output G-infinity (log10)” value amounted to 3.262 ± 0.017.
In the same order, the values of L296R are 4.37 ± 0.045, 1.33 ± 0.051, 2.995 ± 0.0098 and 4.383 ± 0.025.
In the same order, the values of S69T I83M S97T are 1.957 ± 0.0053, 1.61 ± 0.017, 1.17 ± 0.54 and 4.4073 ± 0.0024.
For Q291L, the “EC50 for IPTG (log10 µmol/L)” value with IPTG [1] is 2.064 ± 0.017. Further, the Hill coefficient n with IPTG [2] was 1.61 ± 0.052. Further, the “basal output G0 (log10)” value with IPTG [3] worked out at 2.22 ± 0.21. The “saturating output G-infinity (log10)” value with IPTG [4] came out at 4.407 ± 0.0075.
For the variant A138T A214V V244L, the “EC50 for IPTG (log10 µmol/L)” value with IPTG [1] was 1.808 ± 0.0078. Besides, the Hill coefficient n with IPTG [2] came to 1.61 ± 0.025. Besides, the “basal output G0 (log10)” value in the data set with IPTG [3] came out at 2.43 ± 0.047. Besides, the “saturating output G-infinity (log10)” value in the data set with IPTG [4] was determined as 4.4294 ± 0.0033.
In the same order, the values of G200C are 2.729 ± 0.016, 1.58 ± 0.049, 1.48 ± 0.68 and 4.489 ± 0.0069.
As to S69T V80L, in the data set with IPTG [1], the “EC50 for IPTG (log10 µmol/L)” value came out at 1.75 ± 0.025. Moreover, the Hill coefficient n in the data set with IPTG [2] was found to be 1.38 ± 0.066. Also, the “basal output G0 (log10)” value in the data set with IPTG [3] stood at 1.09 ± 0.68. The “saturating output G-infinity (log10)” value in the data set with IPTG [4] amounted to 4.182 ± 0.0044.
For L56M Q317L, in that order: 1.07 ± 0.085, 1.44 ± 0.3, 3.96 ± 0.044 and 4.485 ± 0.018.
In the same order, the values of I160N Q231H I289V D302E are 2.6 ± 0.026, 1.67 ± 0.073, 2.06 ± 0.43 and 4.284 ± 0.015.
In the same order, the values of P76Q V150A N157D Q181H I210L M254T I283N are 2.23 ± 0.046, 1.11 ± 0.11, 4.237 ± 0.007 and 3.925 ± 0.008.
In the case of I83M S97T V136E, the “EC50 for IPTG (log10 µmol/L)” value with IPTG [1] turned out to be 2.29 ± 0.05. In addition, the Hill coefficient n in the data set with IPTG [2] amounted to 0.765 ± 0.058. Besides, the “basal output G0 (log10)” value with IPTG [3] is 4.52 ± 0.0074. The “saturating output G-infinity (log10)” value with IPTG [4] was determined as 4.113 ± 0.012.
For M42L V66I S93N D132V, in that order: 1.646 ± 0.0068, 1.59 ± 0.033, 2.55 ± 0.058 and 4.1768 ± 0.0024.
In the same order, the values of I83F are 1.29 ± 0.02, 1.43 ± 0.06, 2.91 ± 0.064 and 4.434 ± 0.0071.
For I83M, in that order: 2.555 ± 0.019, 1.48 ± 0.049, 1.45 ± 0.61 and 4.268 ± 0.0077.
In the case of Q181H, the “EC50 for IPTG (log10 µmol/L)” value in the data set with IPTG [1] was 2.037 ± 0.0042. For the same variant, the Hill coefficient n with IPTG [2] is 1.625 ± 0.015. Also, in the data set with IPTG [3], the “basal output G0 (log10)” value was determined as 2.24 ± 0.049. Further, the “saturating output G-infinity (log10)” value in the data set with IPTG [4] was 4.4146 ± 0.0018.
Turning to S120G M223L F226L L319F R355L, in the data set with IPTG [1], the “EC50 for IPTG (log10 µmol/L)” value turned out to be 2.248 ± 0.015. Besides, in the data set with IPTG [2], the Hill coefficient n was found to be 1.51 ± 0.035. The “basal output G0 (log10)” value in the data set with IPTG [3] amounted to 2.781 ± 0.021. Moreover, the “saturating output G-infinity (log10)” value with IPTG [4] was 4.407 ± 0.0067.

The record behind these values is the supplement of paper PMC10057847, “Precision engineering of biological function with large-scale measurements and machine learning” (PLOS ONE, 2023).
